Assay results: patent US20180140690A1

Tests used:
[1] = target: XC-chemokine receptor 1 (XCR1) on mouse dermal dendritic cells (mouse) (UniProt Q9R0M1); assay: cell-based or functional assay
[2] = target: XC-chemokine receptor 1 (XCR1) on mouse dermal dendritic cells (mouse) (UniProt Q9R0M1); assay: flow cytometry of ear skin cells 24 h after laser-assisted delivery of the vaccibody in vivo; staining depended on XCR1 expression (Xcr1-/- mice)

UniProt Q9R0M1, sequence (Q9R0M1 whole entry): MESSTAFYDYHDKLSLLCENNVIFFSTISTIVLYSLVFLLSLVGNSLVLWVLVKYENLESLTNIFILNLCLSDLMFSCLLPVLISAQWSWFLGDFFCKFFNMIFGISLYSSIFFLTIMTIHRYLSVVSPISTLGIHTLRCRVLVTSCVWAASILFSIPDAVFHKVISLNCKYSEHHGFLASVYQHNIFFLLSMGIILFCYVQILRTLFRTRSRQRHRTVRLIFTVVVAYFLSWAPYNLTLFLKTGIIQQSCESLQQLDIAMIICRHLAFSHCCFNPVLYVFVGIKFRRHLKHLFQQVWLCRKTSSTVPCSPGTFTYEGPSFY

| OT-I CD8+ T cell proliferation in ear-draining lymph nodes (CTV dilution), against free OVA on a per molecule basis [1] | OT-II CD4+ T cell proliferation in ear-draining lymph nodes (CTV dilution), against free OVA on a per molecule basis [1] | percent of XCR1+ dermal DCs stained [2] | Substance |
| --- | --- | --- | --- |
| 15 times | 3 times |  | XCL1-OVA vaccibodies (from UniProt P47993 22-114; P01860 99-377; P01012 2-386) |
|  |  | 15% | XCL1-mCherry vaccibodies (from UniProt P47993 22-114; P01860 99-377) |
